Data: patent US5830699

Target: HA-SOK-1 (human)

SOK-1 kinase activity: 40%
Substance: catalytic subunit of protein phosphatase 2A (enzyme)
